In this series the target is AP2-I D3 (Plasmodium falciparum, UniProt Q8IJW6 910-1027). The experiment in a line: gcPBM; about 25 ug protein; PBS, 1% milk, 0.2 mg/ml BSA, salmon testes DNA, 0.03% Triton X-100. The settings on record: tags: N-terminal GST (pGEX-4T-1), kept; label: surface-attached array probe.

B1: GTGCAC_negctrl_site68 (dsDNA)
DNA 1: GCAAAATAACAATGTTACACTTATAAAATTGAGGCA
DNA 2: TGCCTCAATTTTATAAGTGTAACATTGTTATTTTGC
In the case of B1, the binding signal was 7.14 ln median PBM intensity, better of two orientations.

B2: GTGCAC_negctrl_site247 (dsDNA)
DNA 1: TGTTTATAAATATAAAAAAATATATATATATATTAT
DNA 2: ATAATATATATATATATTTTTTTATATTTATAAACA
As for B2, the binding signal was 7.14 ln median PBM intensity, better of two orientations.

B3: GTGCAC_negctrl_site197 (dsDNA)
DNA 1: TTTTTAAAAAAGATAAGCGAAAGAATTAATTTTTAA
DNA 2: TTAAAAATTAATTCTTTCGCTTATCTTTTTTAAAAA
In the case of B3, the binding signal is 7.16 ln median PBM intensity, better of two orientations.

B4: GTGCAC_negctrl_site374 (dsDNA)
DNA 1: TTTCCGGTAATATGGAGATATATGTGGGTTTTTTTT
DNA 2: AAAAAAAACCCACATATATCTCCATATTACCGGAAA
Consider B4, for which the binding signal was 7.18 ln median PBM intensity, better of two orientations.

B5: GTGCAC_negctrl_site469 (dsDNA)
DNA 1: AACAAAGGATTTATATATACATACATACATACATAA
DNA 2: TTATGTATGTATGTATGTATATATAAATCCTTTGTT
As to B5, the binding signal was 7.14 ln median PBM intensity, better of two orientations.

B6: GTGCAC_negctrl_site497 (dsDNA)
DNA 1: TATATAATATATATTTTATATTTGTAATAATTTTTT
DNA 2: AAAAAATTATTACAAATATAAAATATATATTATATA
Consider B6, for which the binding signal is 7.15 ln median PBM intensity, better of two orientations.

B7: GTGCAC_negctrl_site30 (dsDNA)
DNA 1: TCTTAAAAGGGGAATGGAATGGAGAAAATGAAATAA
DNA 2: TTATTTCATTTTCTCCATTCCATTCCCCTTTTAAGA
In the case of B7, the binding signal was 7.11 ln median PBM intensity, better of two orientations.

B8: GTGCAC_negctrl_site127 (dsDNA)
DNA 1: ATATATACATATACTATATCTTTTATTTTTATTATT
DNA 2: AATAATAAAAATAAAAGATATAGTATATGTATATAT
Consider B8, for which the binding signal is 7.2 ln median PBM intensity, better of two orientations.

B9: GTGCAC_negctrl_site726 (dsDNA)
DNA 1: GAAAACATTAAAAGTTAGATCATAAGAAAAGAATAT
DNA 2: ATATTCTTTTCTTATGATCTAACTTTTAATGTTTTC
Take B9: the binding signal was 7.04 ln median PBM intensity, better of two orientations.

B10: GTGCAC_negctrl_site517 (dsDNA)
DNA 1: TTTTGAAGTAACAAATAAATAAATAAATATATAAAA
DNA 2: TTTTATATATTTATTTATTTATTTGTTACTTCAAAA
In the case of B10, the binding signal is 7.16 ln median PBM intensity, better of two orientations.

B11: GTGCAC_negctrl_site172 (dsDNA)
DNA 1: TATTTTTTAAGTGAACATTTGTTATTATATTCTTAT
DNA 2: ATAAGAATATAATAACAAATGTTCACTTAAAAAATA
With B11, the binding signal is 7.06 ln median PBM intensity, better of two orientations.

B12: GTGCAC_negctrl_site492 (dsDNA)
DNA 1: AAAACCTAAAAGTCTTAAATTTTAAATATACCTACA
DNA 2: TGTAGGTATATTTAAAATTTAAGACTTTTAGGTTTT
For the molecule B12, the binding signal was 7.08 ln median PBM intensity, better of two orientations.

B13: GTGCAC_negctrl_site334 (dsDNA)
DNA 1: TTTTTAATTAACTTTTTATAAATAAATAAAAATATA
DNA 2: TATATTTTTATTTATTTATAAAAAGTTAATTAAAAA
Consider B13, for which the binding signal was 7.2 ln median PBM intensity, better of two orientations.

B14: GTGCAC_negctrl_site611 (dsDNA)
DNA 1: ATCGAAATTTTAGAATATATATGATGTTACTTAAGT
DNA 2: ACTTAAGTAACATCATATATATTCTAAAATTTCGAT
Regarding B14, the binding signal is 7.04 ln median PBM intensity, better of two orientations.

B15: GTGCAC_negctrl_site174 (dsDNA)
DNA 1: AAGAAAAAAAAAAAAAAAAAAAAAAAAAAGGAAAAA
DNA 2: TTTTTCCTTTTTTTTTTTTTTTTTTTTTTTTTTCTT
For the molecule B15, the binding signal was 7.21 ln median PBM intensity, better of two orientations.

B16: GTGCAC_negctrl_site216 (dsDNA)
DNA 1: GGTAGATTATTATTAACGAAAAATGTTTTTAACATA
DNA 2: TATGTTAAAAACATTTTTCGTTAATAATAATCTACC
Take B16: the binding signal is 7.18 ln median PBM intensity, better of two orientations.

B17: GTGCAC_negctrl_site22 (dsDNA)
DNA 1: AATATATTGTTTCCTGATATTAAATTCAATTTAATG
DNA 2: CATTAAATTGAATTTAATATCAGGAAACAATATATT
For B17, the binding signal was 7.11 ln median PBM intensity, better of two orientations.

B18: GTGCAC_negctrl_site76 (dsDNA)
DNA 1: AATATATGCTTTCGTTATATTAAATTCAATTTAATG
DNA 2: CATTAAATTGAATTTAATATAACGAAAGCATATATT
In the case of B18, the binding signal is 7.14 ln median PBM intensity, better of two orientations.

B19: GTGCAC_negctrl_site606 (dsDNA)
DNA 1: TTTAATTTTACATGAGAAACATATTACAATAAAATA
DNA 2: TATTTTATTGTAATATGTTTCTCATGTAAAATTAAA
As for B19, the binding signal is 7.18 ln median PBM intensity, better of two orientations.

B20: GTGCAC_negctrl_site394 (dsDNA)
DNA 1: AAAAAAAATTAAATAAATAAATATACACATATATAT
DNA 2: ATATATATGTGTATATTTATTTATTTAATTTTTTTT
With B20, the binding signal is 7.11 ln median PBM intensity, better of two orientations.

B21: GTGCAC_negctrl_site409 (dsDNA)
DNA 1: ATTGAGGCTGGTTATATAATAATTTTATTATTTTAG
DNA 2: CTAAAATAATAAAATTATTATATAACCAGCCTCAAT
Consider B21, for which the binding signal was 7.11 ln median PBM intensity, better of two orientations.

B22: GTGCAC_negctrl_site418 (dsDNA)
DNA 1: TATTGACAAAAAAAAAAAAGGTAAAAAAGAAAGAAA
DNA 2: TTTCTTTCTTTTTTACCTTTTTTTTTTTTGTCAATA
B22: the binding signal was 7.05 ln median PBM intensity, better of two orientations.

B23: GTGCAC_negctrl_site125 (dsDNA)
DNA 1: AAAAATTATAAAAAACAAATATTAAATAATTATTAA
DNA 2: TTAATAATTATTTAATATTTGTTTTTTATAATTTTT
Turning to B23, the binding signal is 7.08 ln median PBM intensity, better of two orientations.

B24: GTGCAC_negctrl_site432 (dsDNA)
DNA 1: AAAAAAATAATATAAATAATGAAAAGATATAAATAA
DNA 2: TTATTTATATCTTTTCATTATTTATATTATTTTTTT
In the case of B24, the binding signal is 7.13 ln median PBM intensity, better of two orientations.

B25: GTGCAC_negctrl_site271 (dsDNA)
DNA 1: TTGTTAATAAATAAATAAATAAATATATTTATATAT
DNA 2: ATATATAAATATATTTATTTATTTATTTATTAACAA
Consider B25, for which the binding signal was 7.14 ln median PBM intensity, better of two orientations.

B26: GTGCAC_negctrl_site372 (dsDNA)
DNA 1: AAAAAAATCACATAAAATACTTTATTTTATATTATA
DNA 2: TATAATATAAAATAAAGTATTTTATGTGATTTTTTT
Take B26: the binding signal is 7.11 ln median PBM intensity, better of two orientations.

B27: GTGCAC_negctrl_site442 (dsDNA)
DNA 1: ATAGTACAACAGGTTCTTGACAAACAATATGAATGT
DNA 2: ACATTCATATTGTTTGTCAAGAACCTGTTGTACTAT
For B27, the binding signal is 7.13 ln median PBM intensity, better of two orientations.

B28: GTGCAC_negctrl_site534 (dsDNA)
DNA 1: TTTTTTATCTAATATTTTATAATTTTCATAAATTTG
DNA 2: CAAATTTATGAAAATTATAAAATATTAGATAAAAAA
With B28, the binding signal was 7.06 ln median PBM intensity, better of two orientations.

B29: GTGCAC_negctrl_site454 (dsDNA)
DNA 1: AAAAAAAAAGTATATATATATTTAAGGAATTCTCTC
DNA 2: GAGAGAATTCCTTAAATATATATATACTTTTTTTTT
Take B29: the binding signal is 7.18 ln median PBM intensity, better of two orientations.

B30: GTGCAC_negctrl_site41 (dsDNA)
DNA 1: TCTTGATACAAACATTTAAATAAATAAATAAAAAAA
DNA 2: TTTTTTTATTTATTTATTTAAATGTTTGTATCAAGA
With B30, the binding signal is 7.16 ln median PBM intensity, better of two orientations.
